{
  "source": "paper PMC10275983",
  "note": "Where “and” joins values, the source holds several entries; their conditions need not be identical. Equal entries are not always repeated.",
  "data": [
    {"target": "S1 (Novus Biologicals NBP2-90985) (SARS-CoV-2), P0DTC2", "assay": "AlphaScreen or HTRF", "values": [
      {"binder": "ACEYVGPMCYRLYCA (modifications not checked)", "note": "[BCY15354 (E1)]", "IC50": "360 nM and 1600 nM and 550 nM"},
      {"binder": "ACEDNDWVYCSTCA (modifications not checked)", "note": "[BCY15231 (E3)]", "IC50": "310 nM and 400 nM"},
      {"binder": "ACMNPFFYDCETVCA (modifications not checked)", "note": "[BCY16207 (E9)]", "IC50": "1100 nM"}
    ]}
  ]
}
